Experimental data: patent publication US20230192768A1 (published 2023)
Where no end group is shown, it is not given here.

Target: tumor necrosis factor alpha (TNF-α) protein
Assay: ELISA: plate coated with 2 µg/ml TNF-α, FITC-labeled peptide titrated, HRP anti-FITC antibody, OD 410 nm, fitted in GraphPad Prism 5

tumor necrosis factor alpha (TNF-α) protein, sequence (chain, as listed by the source): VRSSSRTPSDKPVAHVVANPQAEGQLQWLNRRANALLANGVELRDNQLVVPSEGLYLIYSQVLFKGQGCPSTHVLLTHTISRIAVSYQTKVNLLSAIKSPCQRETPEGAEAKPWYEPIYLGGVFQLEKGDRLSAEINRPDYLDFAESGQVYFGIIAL

B1: peptide 632 (peptide)
peptide: HYIDFRW
modifications: also: FITC label, place not given here
notes: Chemically synthesized peptide; It was used in the ELISA as the FITC-labeled peptide; also called TNF-α antagonist peptide; antagonist peptide
  Kd: 138 nM
